Columns and labels:
[1] = biological target: T1, human voltage-gated potassium channel subfamily H member 5 (KCNH5, EAG2) (human, UniProt Q8NCM2 1-988); assay: co-IP of overexpressed proteins in HEK293T cells
T1 construct: Full length EAG2 expressed in HEK293T cells and tested by co-IP from lysates; This id also stands for endogenous human EAG2 in lysates of GBM cells and of human fetal neural progenitor cells; also called full length EAG2
T1 sequence: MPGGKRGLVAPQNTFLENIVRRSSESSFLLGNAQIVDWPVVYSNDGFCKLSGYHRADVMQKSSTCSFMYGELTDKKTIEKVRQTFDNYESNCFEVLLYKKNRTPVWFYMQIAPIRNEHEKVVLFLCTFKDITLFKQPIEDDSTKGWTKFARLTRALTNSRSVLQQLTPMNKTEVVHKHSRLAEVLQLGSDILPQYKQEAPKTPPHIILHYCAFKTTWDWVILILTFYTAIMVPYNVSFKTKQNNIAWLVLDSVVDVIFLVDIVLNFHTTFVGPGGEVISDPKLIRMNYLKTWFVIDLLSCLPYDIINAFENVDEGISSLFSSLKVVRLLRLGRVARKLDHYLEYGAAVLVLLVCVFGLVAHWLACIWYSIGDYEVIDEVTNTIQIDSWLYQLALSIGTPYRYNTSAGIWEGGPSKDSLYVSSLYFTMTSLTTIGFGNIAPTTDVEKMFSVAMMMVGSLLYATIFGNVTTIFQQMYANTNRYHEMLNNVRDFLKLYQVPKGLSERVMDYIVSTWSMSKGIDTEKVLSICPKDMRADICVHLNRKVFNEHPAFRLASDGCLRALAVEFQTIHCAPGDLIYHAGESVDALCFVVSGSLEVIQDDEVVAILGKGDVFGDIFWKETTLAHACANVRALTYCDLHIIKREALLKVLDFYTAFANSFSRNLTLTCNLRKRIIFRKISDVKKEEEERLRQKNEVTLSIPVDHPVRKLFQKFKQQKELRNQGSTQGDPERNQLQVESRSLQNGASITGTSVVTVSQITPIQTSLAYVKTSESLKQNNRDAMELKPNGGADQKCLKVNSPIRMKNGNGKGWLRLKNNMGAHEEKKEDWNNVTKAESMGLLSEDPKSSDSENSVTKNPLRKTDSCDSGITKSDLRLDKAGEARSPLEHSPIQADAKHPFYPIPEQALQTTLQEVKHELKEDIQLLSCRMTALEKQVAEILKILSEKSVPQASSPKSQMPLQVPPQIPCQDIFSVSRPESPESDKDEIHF

[2] = biological target: T1, human voltage-gated potassium channel …; assay: co-IP in HEK293T cells

B1: Kvß2 truncation mutant f7 (1-316 aa) (other)
chain: MYPESTTGSPARLSLRQTGSPGMIYSTRYGSPKRQLQFYRNLGKSGLRVSCLGLGTWVTFGGQITDEMAEQLMTLAYDNGINLFDTAEVYAAGKAEVVLGNIIKKKGWRRSSLVITTKIFWGGKAETERGLSRKHIIEGLKASLERLQLEYVDVVFANRPDPNTPMEETVRAMTHVINQGMAMYWGTSRWSSMEIMEAYSVARQFNLTPPICEQAEYHMFQREKVEVQLPELFHKIGVGAMTWSPLACGIVSGKYDSGIPPYSRASLKGYQWLKDKILSEEGRRQQAKLKELQAIAERLGCTLPQLAIAWCLRNEG
notes: Expressed in HEK293T cells
B1: binds [1].

B2: Kvß2 truncation mutant f9 (1-355 aa) (other)
chain: MYPESTTGSPARLSLRQTGSPGMIYSTRYGSPKRQLQFYRNLGKSGLRVSCLGLGTWVTFGGQITDEMAEQLMTLAYDNGINLFDTAEVYAAGKAEVVLGNIIKKKGWRRSSLVITTKIFWGGKAETERGLSRKHIIEGLKASLERLQLEYVDVVFANRPDPNTPMEETVRAMTHVINQGMAMYWGTSRWSSMEIMEAYSVARQFNLTPPICEQAEYHMFQREKVEVQLPELFHKIGVGAMTWSPLACGIVSGKYDSGIPPYSRASLKGYQWLKDKILSEEGRRQQAKLKELQAIAERLGCTLPQLAIAWCLRNEGVSSVLLGASNADQLMENIGAIQVLPKLSSSIIHEIDSIL
notes: Expressed in HEK293T cells
B2: no binding [1].

B3: Kvß2 truncation mutant f8 (1-342 aa) (other)
chain: MYPESTTGSPARLSLRQTGSPGMIYSTRYGSPKRQLQFYRNLGKSGLRVSCLGLGTWVTFGGQITDEMAEQLMTLAYDNGINLFDTAEVYAAGKAEVVLGNIIKKKGWRRSSLVITTKIFWGGKAETERGLSRKHIIEGLKASLERLQLEYVDVVFANRPDPNTPMEETVRAMTHVINQGMAMYWGTSRWSSMEIMEAYSVARQFNLTPPICEQAEYHMFQREKVEVQLPELFHKIGVGAMTWSPLACGIVSGKYDSGIPPYSRASLKGYQWLKDKILSEEGRRQQAKLKELQAIAERLGCTLPQLAIAWCLRNEGVSSVLLGASNADQLMENIGAIQVLPK
notes: Expressed in HEK293T cells
B3: binds [1].

B4: Kvß2 truncation mutant f1 (1-158 aa) (other)
chain: MYPESTTGSPARLSLRQTGSPGMIYSTRYGSPKRQLQFYRNLGKSGLRVSCLGLGTWVTFGGQITDEMAEQLMTLAYDNGINLFDTAEVYAAGKAEVVLGNIIKKKGWRRSSLVITTKIFWGGKAETERGLSRKHIIEGLKASLERLQLEYVDVVFAN
notes: Expressed in HEK293T cells
B4: binds [1].

B5: Kvß2 truncation mutant f6 (317-367 aa) (other)
chain: VSSVLLGASNADQLMENIGAIQVLPKLSSSIIHEIDSILGNKPYSKKDYRS
notes: Expressed in HEK293T cells
B5: no binding [1].

B6: Kvß2 truncation mutant f3 (239-367 aa) (other)
chain: GAMTWSPLACGIVSGKYDSGIPPYSRASLKGYQWLKDKILSEEGRRQQAKLKELQAIAERLGCTLPQLAIAWCLRNEGVSSVLLGASNADQLMENIGAIQVLPKLSSSIIHEIDSILGNKPYSKKDYRS
notes: Expressed in HEK293T cells
B6: no binding [1].

B7: Kvß2 truncation mutant f5 (239-316 aa) (other)
chain: GAMTWSPLACGIVSGKYDSGIPPYSRASLKGYQWLKDKILSEEGRRQQAKLKELQAIAERLGCTLPQLAIAWCLRNEG
notes: Expressed in HEK293T cells
B7: no binding [1].

B8: Kvß2 isoform 4 (other)
chain: MAEQLMTLAYDNGINLFDTAEVYAAGKAEVVLGNIIKKKGWRRSSLVITTKIFWGGKAETERGLSRKHIIEGLKASLERLQLEYVDVVFANRPDPNTPMEETVRAMTHVINQGMAMYWGTSRWSSMEIMEAYSVARQFNLTPPICEQAEYHMFQREKVEVQLPELFHKIGVGAMTWSPLACGIVSGKYDSGIPPYSRASLKGYQWLKDKILSEEGRRQQAKLKELQAIAERLGCTLPQLAIAWCLRNEGVSSVLLGASNADQLMENIGAIQVLPKLSSSIIHEIDSILGNKPYSKKDYRS
notes: Expressed in HEK293T cells; also called Kvβ2 isoform 4; Kvß2 splice isoform 4
B8: binds [2].

Source: patent US20240417439A1, “RECOMBINANT POLYPEPTIDE FOR DISRUPTING INTERACTION OF EAG2 AND KVß2 AND THERAPEUTIC APPLICATIONS THEREOF IN CANCER TREATMENT” (The Hospital for Sick Children, priority 2021, published 2024)
